Test results from publication PMC314469, “Protein Interaction Networks by Proteome Peptide Scanning” (PLoS Biology, 2004).

T1: Boi1 SH3 (BOI1_YEAST), P38041
T1 chain: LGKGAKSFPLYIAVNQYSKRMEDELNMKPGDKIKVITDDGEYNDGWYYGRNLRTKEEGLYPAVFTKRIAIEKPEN

T2: Boi2 SH3 (BOI2_YEAST), P39969
T2 chain: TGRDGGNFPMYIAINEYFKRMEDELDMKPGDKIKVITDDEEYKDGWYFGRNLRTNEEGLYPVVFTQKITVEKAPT

T3: Myo5 SH3 (MYO5_YEAST), Q04439
T3 chain: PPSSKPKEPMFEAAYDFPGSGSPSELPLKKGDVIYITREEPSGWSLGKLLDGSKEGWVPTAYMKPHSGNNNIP

T4: Rvs167 SH3 (RV167_YEAST), P39743
T4 chain: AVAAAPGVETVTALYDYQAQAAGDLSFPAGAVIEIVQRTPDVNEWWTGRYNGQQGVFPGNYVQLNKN

T5: Yfr024 SH3 (LSB3_YEAST), P43603
T5 chain: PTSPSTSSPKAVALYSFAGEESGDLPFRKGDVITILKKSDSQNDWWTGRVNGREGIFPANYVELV

T6: Yhr016c SH3 (YSC84_YEAST), P32793
T6 chain: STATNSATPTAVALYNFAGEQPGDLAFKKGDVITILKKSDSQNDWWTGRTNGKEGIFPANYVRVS


Biological target: T1, Boi1 SH3 (BOI1_YEAST), P38041
Assay: SPOT array

Binder	normalised SPOT signal, Boehringer light units (BLU); mean over the file's lines of this peptide
SFIRKRAPTPPAPS [YBR108W 721-734]	3210
SKRMKALPKGPAAL [YER164W 1316-1329]	1730
SKNWKLPPRLPHRA [YIR018W 25-38]	7830
SERRKALPKEPKKL [YIR010W 418-431]	1170
SKVNKVAPDHPFIQ [YDR345C 274-287]	122
SKIKRSRPPPPPMD [YDR239C 144-157]	1250
SILNRSVPKRPTID [YAL017W 1333-1346]	958
SIIPRIFPSTPGTI [YGL233W 770-783]	176

Results, then the binder that gave them:

normalised SPOT signal, Boehringer light units (BLU); mean over the file's lines of this peptide	Binder
151	SEMHRAAPETPRSI [YKL050C 40-53]
101	SKYAKLDPSTPVSL [YNL239W 287-300]
27	SFVTKYLPAAPVGS [YJR019C 24-37]
593	SGSGRRYPQTPSYY [YJL095W 698-711]
64.5	SENGRLTPGLPRSY [YPR111W 42-55]
73	SETARKVPPIPTQI [YPL249C 247-260]
151	SKIPKSIPIIPYVL [YLR328W 26-39]
132	SILRKSSPEEPFMS [YNR023W 296-309]

Biological target: T2, Boi2 SH3 (BOI2_YEAST), P39969
Assay: SPOT array

Binder	normalised SPOT signal, Boehringer light units (BLU); mean over the file's lines of this peptide
SFIRKRAPTPPAPS [YBR108W 721-734]	30.6
SKRMKALPKGPAAL [YER164W 1316-1329]	66.1
SKNWKLPPRLPHRA [YIR018W 25-38]	29.8
SERRKALPKEPKKL [YIR010W 418-431]	43.6
SKVNKVAPDHPFIQ [YDR345C 274-287]	9.5
SKIKRSRPPPPPMD [YDR239C 144-157]	35.1
SILNRSVPKRPTID [YAL017W 1333-1346]	8.2
SIIPRIFPSTPGTI [YGL233W 770-783]	22.2

The remaining lines, values ahead:

normalised SPOT signal, Boehringer light units (BLU); mean over the file's lines of this peptide	Binder
28.9	SEMHRAAPETPRSI [YKL050C 40-53]
39.1	SKYAKLDPSTPVSL [YNL239W 287-300]
18.9	SFVTKYLPAAPVGS [YJR019C 24-37]
41.3	SGSGRRYPQTPSYY [YJL095W 698-711]
30.7	SENGRLTPGLPRSY [YPR111W 42-55]
34.5	SETARKVPPIPTQI [YPL249C 247-260]
25.9	SKIPKSIPIIPYVL [YLR328W 26-39]
43	SILRKSSPEEPFMS [YNR023W 296-309]

Biological target: T3, Myo5 SH3 (MYO5_YEAST), Q04439
Assay: SPOT array

Binder	normalised SPOT signal, Boehringer light units (BLU); mean over the file's lines of this peptide
SFIRKRAPTPPAPS [YBR108W 721-734]	878
SKRMKALPKGPAAL [YER164W 1316-1329]	822
SKNWKLPPRLPHRA [YIR018W 25-38]	5570
SERRKALPKEPKKL [YIR010W 418-431]	200
SKVNKVAPDHPFIQ [YDR345C 274-287]	72.1
SKIKRSRPPPPPMD [YDR239C 144-157]	5410
SILNRSVPKRPTID [YAL017W 1333-1346]	133
SIIPRIFPSTPGTI [YGL233W 770-783]	369

Further lines, results first:

normalised SPOT signal, Boehringer light units (BLU); mean over the file's lines of this peptide	Binder
322	SEMHRAAPETPRSI [YKL050C 40-53]
457	SKYAKLDPSTPVSL [YNL239W 287-300]
215	SFVTKYLPAAPVGS [YJR019C 24-37]
436	SGSGRRYPQTPSYY [YJL095W 698-711]
170	SENGRLTPGLPRSY [YPR111W 42-55]
420	SETARKVPPIPTQI [YPL249C 247-260]
243	SKIPKSIPIIPYVL [YLR328W 26-39]
144	SILRKSSPEEPFMS [YNR023W 296-309]

Biological target: T4, Rvs167 SH3 (RV167_YEAST), P39743
Assay: SPOT array

Binder	normalised SPOT signal, Boehringer light units (BLU); mean over the file's lines of this peptide
SFIRKRAPTPPAPS [YBR108W 721-734]	250
SKRMKALPKGPAAL [YER164W 1316-1329]	204
SKNWKLPPRLPHRA [YIR018W 25-38]	10200
SERRKALPKEPKKL [YIR010W 418-431]	87.9
SKVNKVAPDHPFIQ [YDR345C 274-287]	12.9
SKIKRSRPPPPPMD [YDR239C 144-157]	185
SILNRSVPKRPTID [YAL017W 1333-1346]	28300
SIIPRIFPSTPGTI [YGL233W 770-783]	369

Other lines, results leading:

normalised SPOT signal, Boehringer light units (BLU); mean over the file's lines of this peptide	Binder
207	SEMHRAAPETPRSI [YKL050C 40-53]
42.2	SKYAKLDPSTPVSL [YNL239W 287-300]
100	SFVTKYLPAAPVGS [YJR019C 24-37]
137	SGSGRRYPQTPSYY [YJL095W 698-711]
235	SENGRLTPGLPRSY [YPR111W 42-55]
21500	SETARKVPPIPTQI [YPL249C 247-260]
73.2	SKIPKSIPIIPYVL [YLR328W 26-39]
162	SILRKSSPEEPFMS [YNR023W 296-309]

biological target: Sho1 SH3 (SHO1_YEAST), P40073; assay: SPOT array
Sequence (P40073 295-366): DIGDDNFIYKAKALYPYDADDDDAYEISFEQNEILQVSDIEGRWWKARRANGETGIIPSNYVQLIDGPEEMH

Binder	normalised SPOT signal, Boehringer light units (BLU); mean over the file's lines of this peptide
SFIRKRAPTPPAPS [YBR108W 721-734]	208
SKRMKALPKGPAAL [YER164W 1316-1329]	6310
SKNWKLPPRLPHRA [YIR018W 25-38]	4940
SERRKALPKEPKKL [YIR010W 418-431]	29500
SKVNKVAPDHPFIQ [YDR345C 274-287]	0
SKIKRSRPPPPPMD [YDR239C 144-157]	167
SILNRSVPKRPTID [YAL017W 1333-1346]	96.4
SIIPRIFPSTPGTI [YGL233W 770-783]	632

Next, values leading:

normalised SPOT signal, Boehringer light units (BLU); mean over the file's lines of this peptide	Binder
95.5	SEMHRAAPETPRSI [YKL050C 40-53]
32.6	SKYAKLDPSTPVSL [YNL239W 287-300]
2510	SFVTKYLPAAPVGS [YJR019C 24-37]
168	SGSGRRYPQTPSYY [YJL095W 698-711]
35.8	SENGRLTPGLPRSY [YPR111W 42-55]
29.9	SETARKVPPIPTQI [YPL249C 247-260]
76.7	SKIPKSIPIIPYVL [YLR328W 26-39]
54.4	SILRKSSPEEPFMS [YNR023W 296-309]

Biological target: T5, Yfr024 SH3 (LSB3_YEAST), P43603
Assay: SPOT array

Binder	normalised SPOT signal, Boehringer light units (BLU); mean over the file's lines of this peptide
SFIRKRAPTPPAPS [YBR108W 721-734]	1500
SKRMKALPKGPAAL [YER164W 1316-1329]	1540
SKNWKLPPRLPHRA [YIR018W 25-38]	39100
SERRKALPKEPKKL [YIR010W 418-431]	649
SKVNKVAPDHPFIQ [YDR345C 274-287]	13.5
SKIKRSRPPPPPMD [YDR239C 144-157]	1450
SILNRSVPKRPTID [YAL017W 1333-1346]	39200
SIIPRIFPSTPGTI [YGL233W 770-783]	448

Other lines, results leading:

normalised SPOT signal, Boehringer light units (BLU); mean over the file's lines of this peptide	Binder
904	SEMHRAAPETPRSI [YKL050C 40-53]
26.4	SKYAKLDPSTPVSL [YNL239W 287-300]
53.3	SFVTKYLPAAPVGS [YJR019C 24-37]
638	SGSGRRYPQTPSYY [YJL095W 698-711]
240	SENGRLTPGLPRSY [YPR111W 42-55]
19400	SETARKVPPIPTQI [YPL249C 247-260]
42.7	SKIPKSIPIIPYVL [YLR328W 26-39]
327	SILRKSSPEEPFMS [YNR023W 296-309]

Biological target: T6, Yhr016c SH3 (YSC84_YEAST), P32793
Assay: SPOT array

Binder	normalised SPOT signal, Boehringer light units (BLU); mean over the file's lines of this peptide
SFIRKRAPTPPAPS [YBR108W 721-734]	99.6
SKRMKALPKGPAAL [YER164W 1316-1329]	114
SKNWKLPPRLPHRA [YIR018W 25-38]	21900
SERRKALPKEPKKL [YIR010W 418-431]	49.3
SKVNKVAPDHPFIQ [YDR345C 274-287]	7.1
SKIKRSRPPPPPMD [YDR239C 144-157]	123
SILNRSVPKRPTID [YAL017W 1333-1346]	11900
SIIPRIFPSTPGTI [YGL233W 770-783]	32.6

Results, then the binder that gave them:

normalised SPOT signal, Boehringer light units (BLU); mean over the file's lines of this peptide	Binder
140	SEMHRAAPETPRSI [YKL050C 40-53]
48.5	SKYAKLDPSTPVSL [YNL239W 287-300]
82.1	SFVTKYLPAAPVGS [YJR019C 24-37]
226	SGSGRRYPQTPSYY [YJL095W 698-711]
52.2	SENGRLTPGLPRSY [YPR111W 42-55]
8100	SETARKVPPIPTQI [YPL249C 247-260]
33.4	SKIPKSIPIIPYVL [YLR328W 26-39]
22.1	SILRKSSPEEPFMS [YNR023W 296-309]
